Source: patent US8663616B2, “Enzymatic peracid generation for use in oral care products” (E I du Pont de Nemours and Company, priority 2010, dated 2014)

Columns and labels:
[1] = Peracetic acid generated in solution by CE-7 perhydrolase fusions (Example 8); format: biochemical; conditions: 0.5 μM enzyme, 100 mM triacetin, 100 mM H2O2, pH 7.2, 10 min, 37° C.; no enzyme 378.9
Method: (§1) The detection of peracetic acid followed the method described in Pinkernell et. al. (Analyst, 1997, 122, 567) using colorimetric detection of 2,2′-azino-bis(3-ethylbenzothiazoline(-6-sulfonate (ABTS) oxidation by peracetic acid. Following the formation of peracetic acid with the addition of triacetin and hydrogen peroxide, 90 μL of solution was added to 10 μL of 0.1 M H3PO4 in a well plate. 50 μL of 1 M acetic acid, 50 μL of 0.5 g/L ABTS and 50 μL of 0.002 g/L of KI was added. The solution was allowed to develop for 5 min. The absorbance of the solution was measured at 405 nm using a microplate reader. The peracetic acid concentration was calculated based on a standard curve developed simultaneously using peracetic acid reagent solution.
Perhydrolase enzymes listed in Table 6 were assessed for solution activities. The method to measure the perhydrolase in solution activity was described in Example 7 by making a 500 μL solution containing 0.5 μM of enzyme, 100 mM triacetin, 100 mM H2O2 in 100 mM phosphate buffer, pH 7.2. The solution was mixed and incubated for 10 min at 37° C. A 10 μL aliquot was removed and diluted for detection as described in Example 7. Peracetic acid concentration was determined using a standard curve generated with a stock solution of peracetic acid (Aldrich). The experiment was also performed with no enzyme present as a control.

[2] = Peracetic acid generation from hydroxyapatite bound CE-7 perhydrolase fusions (Example 8); format: biochemical; conditions: for Peracetic acid (ppm): hydroxyapatite particles exposed to 10 μM enzyme, washed, 100 mM triacetin, 100 mM H2O2, 30 min, 37° C., no enzyme 30-118.8
Method: as §1
To assess binding of these constructs to hydroxyapatite, 33 mg of hydroxyapatite particles (Macro-prep Ceramic Hydroxyapatite TYPE I, 80 μm size BioRad, Hercules, Calif.), were washed with 10 mM phosphate buffer at pH 7.2. After removing the supernatant, enzyme stock solution was added to the hydroxyapatite dispersion to a final concentration of 10 μM and incubated for 30 min in a microcentrifuge tube with gentle agitation. Each sample was centrifuged for 1 min at 10000 rpm. The supernatant was removed and additional buffer was added. The particles were resuspended and transferred to a new tube. The process was repeated two additional times. The hydroxyapatite bound enzyme activity was measured by adding a 500 μl solution containing 100 mM triacetin, 100 mM H2O2 in 100 mM phosphate buffer, pH 7.2. The solution was incubated for 30 min, at 37° C. An aliquot was removed and mixed with H3PO4 and properly diluted for detection via ABTS oxidation as described in Example 7. The experiments were performed at different day with no enzyme as control for each experiment.

[3] = Retention of perhydrolase on hydroxyapatite (SDS-PAGE band strength); format: binding; conditions: relative to enzyme input = 1
Method: Perhydrolase enzymes listed in Table 6 were assessed for binding to hydroxyapatite. A dispersion of hydroxyapatite nanoparticles (Aldrich 677418) was made at 0.5% solids in 10 mM phosphate buffer at pH 7.2. Enzyme stock solution was added to the hydroxyapatite dispersion to a final concentration of 10 μM and incubated for 30 min in a microcentrifuge tube with gentle agitation. Each sample was centrifuged for 5 min at 10000 rpm. The supernatant was removed and additional buffer was added. The particles were resuspended and transferred to a new tube. The process was repeated two additional times. Samples of the original input of enzyme, the supernatant removed from the particles with each wash step and the final particles were prepared for SDS-PAGE analysis by combining 60 μL of sample, 20 μL of LDS buffer and 8 μL of reducing agent (Nu-PAGE). Samples were heated at 85° C. for 10 min. 25 μL of each sample was loaded on a 4-12% BisTris gel (Invitrogen) and run at 115 volts for 1.5 h. The gel was removed and stained with a 1:1 dilution of Simply Blue stain (Invitrogen) overnight and destained for 4 h in deionized water. The gel was analyzed and detection of enzyme in each fraction was estimated based on the presence of a band. The results of the analysis are provided in Table 7 with an indication of the relative strength of each band in the gel compared to the enzyme input (input=1) to determine the strength of binding between the hydroxyapatite surface and each enzyme.

[4] = T. maritima C277S/C277T constructs, peracetic acid in solution (Example 11); format: biochemical; conditions: 0.5 μM enzyme, 100 mM triacetin, 100 mM H2O2, pH 7.2, 10 min, 37° C.; no enzyme 114
Method: as §1
Perhydrolase enzymes listed in Table 5 were assessed for enzyme activity in solution as described in Example 7. The enzyme activity in solution was measured by making a 500 μl solution of 0.5 μM of each enzyme in 100 mM triacetin, 100 mM H2O2 and 10 mM phosphate buffer, pH 7.2. The solution was incubated for 10 min, at 37° C. After the reaction was stopped by mixing an aliquot with H3PO4, a 10 μL aliquot was removed for proper dilution, and then detected via ABTS oxidation as described in Example 7.

[5] = T. maritima C277S/C277T constructs, peracetic acid when bound to bovine enamel (Example 11); format: biochemical; conditions: bovine enamel exposed to 10 μM enzyme, 4 washes; 100 mM triacetin, 100 mM H2O2, 30 min, 37° C.; no enzyme 570
Method: as §1
The perhydrolase enzymes were also assessed for binding to bovine enamel substrates. Enamel substrates were prepared as described in Example 2 and 3. Each enamel block was hydrated in water for overnight at room temperature (˜22° C.). The enamel blocks were then equilibrated with 10 mM potassium phosphate buffer, pH7.2, for 10 min. The enamel substrates were rinsed 3 times the buffer. The enamel wells were filled with 500 μL of 10 μM enzyme solutions which was prepared by diluting in 10 mM phosphate buffer. The samples were incubated for 30 min with slow shaking at 37° C. The non-binding enzyme was removed by washing 4 times with phosphate buffer. Then, each enamel block was embedded inside a putty filled 24-well plate, with only the enamel top surface exposed. The perhydrolase activity from enamel bound enzyme was measured as described in Example 8. 100 μL reaction mixtures (100 mM phosphate buffer, pH7.2 and 100 mM H2O2 and 100 mM triacetin) was added on top of the enamel and incubated for 30 min at 37° C. A 90 μL aliquot was removed for detection via ABTS oxidation as noted in Example 8. Each sample data point represents an average of 3 independent enamel blocks.

Molecule | PAA (ppm) [1] | Peracetic acid (ppm) [2] | further results
EZ-29: Bpu-link1-DenP308-H6, SEQ ID NO: 453 (protein) MQLFDLSLEELKKYKPKKTARPDFSDFWKKSLEELRQVEAEPTLESYDYPVKGVKVYRLTYQSFGHSKIEGFYAVPDQTGPHPALVRFHGYNASYDGGIHDIVNWALHGYATFGMLVRGQGGSEDTSVTPGGHALGWMTKGILSKDTYYYRGVYLDAVRALEVIQSFPEVDEHRIGVIGGSQGGALAIAAAALSDIPKVVVADYPYLSNFERAVDVALEQPYLEINSYFRRNSDPKVEEKAFETLSYFDLINLAGWVKQPTLMAIGLIDKITPPSTVFAAYNHLETDKDLKVYRYFGHEFIPAFQTEKLSFLQKHLLLSTGPGSGGAGSPGSAGGPGSDPTKPPRTPTANTSRPHHNFGSGGGGSPHHHHHH | 2273.5 ppm | 1299.8 ppm | activity after binding to hydroxyapatite (in words) ([2]; targeted vs untargeted B. pumilus fusion): higher binding activity compared to the untargeted EZ-27
EZ-30: Mlo-link1-H6, SEQ ID NO: 454 (protein) MPFPDLIQPELGAYVSSVGMPDDFAQFWTSTIAEARQAGGEVSIVQAQTTLKAVQSFDVTFPGYGGHPIKGWLILPTHHKGRLPLVVQYIGYGGGRGLAHEQLHWAASGFAYFRMDTRGQGSDWSVGETADPVGSTSSIPGFMTRGVLDKNDYYYRRLFTDAVRAIDALLGLDFVDPERIAVCGDSQGGGISLAVGGIDPRVKAVMPDVPFLCDFPRAVQTAVRDPYLEIVRFLAQHREKKAAVFETLNYFDCVNFARRSKAPALFSVALMDEVCPPSTVYGAFNAYAGEKTITEYEFNNHEGGQGYQERQQMTWLSRLFGVGGPGSGGAGSPGSAGGPGSHHHHHH | 468.8 ppm | 658.5 ppm | –
EZ-9: C277S-link1-H6, SEQ ID NO: 430 (protein) MAFFDLPLEELKKYRPERYEEKDFDEFWEETLAESEKFPLDPVFERMESHLKTVEAYDVTFSGYRGQRIKGWLLVPKLEEEKLPCVVQYIGYNGGRGFPHDWLFWPSMGYICFVMDTRGQGSGWLKGDTPDYPEGPVDPQYPGFMTRGILDPRTYYYRRVFTDAVRAVEAAASFPQVDQERIVIAGGSQGGGIALAVSALSKKAKALLCDVPFLCHFRRAVQLVDTHPYAEITNFLKTHRDKEEIVFRTLSYFDGVNFAARAKIPALFSVGLMDNISPPSTVFAAYNYYAGPKEIRIYPYNNHEGGGSFQAVEQVKFLKKLFEKGGPGSGGAGSPGSAGGPGSHHHHHH | – | 1885.1 ppm | Unbound (relative band strength) ([3]; 10 μM enzyme, 0.5% hydroxyapatite, pH 7.2): 0.9; HAP Particles (relative band strength) ([3]; enzyme retained on particles after washes): 0.05; Wash1 (relative band strength) [3]: 0.01; Wash2 (relative band strength) [3]: 0.00; Peracetic acid (ppm) In Solution [4]: 5499 ppm; Peracetic acid (ppm) On Enamel [5]: 612 ppm
EZ-31: Mlo-link1-HC263-H6, SEQ ID NO: 455 (protein) MPFPDLIQPELGAYVSSVGMPDDFAQFWTSTIAEARQAGGEVSIVQAQTTLKAVQSFDVTFPGYGGHPIKGWLILPTHHKGRLPLVVQYIGYGGGRGLAHEQLHWAASGFAYFRMDTRGQGSDWSVGETADPVGSTSSIPGFMTRGVLDKNDYYYRRLFTDAVRAIDALLGLDFVDPERIAVCGDSQGGGISLAVGGIDPRVKAVMPDVPFLCDFPRAVQTAVRDPYLEIVRFLAQHREKKAAVFETLNYFDCVNFARRSKAPALFSVALMDEVCPPSTVYGAFNAYAGEKTITEYEFNNHEGGQGYQERQQMTWLSRLFGVGGPGSGGAGSPGSAGGPGSPSAQSQLPDKHSGLHERAPQRYGPEPEPEPEPIPEPPKEAPVVIEKPKPKPKPKPKPPAHDHKNQKETHQRHAAGSGGGGSPHHHHHH | 434.9 ppm | 241.4 ppm | –

Further lines, with some results ahead:

PAA (ppm) [1] | Peracetic acid (ppm) [2] | Molecule | further results
1062.5 ppm | 359.1 ppm | EZ-33: Lla-link1-H6, SEQ ID NO: 457 (protein) MTKINNWQDYQGSSLKPEDFDKFWDEKINLVSNHQFEFELIEKNLSSKVVNFYHLWFTAIDGAKIHAQLIVPKNLKEKYPAILQFHGYHCDSGDWVDKIGIVAEGNVVLALDCRGQGGLSQDNIQTMGMTMKGLIVRGIDEGYENLYYVRQFMDLITATKILSEFDFVDETNISAQGASQGGALAVACAALSPLIKKVTATYPFLSDYRKAYELGAEESAFEELPYWFQFKDPLHLREDWFFNQLEYIDIQNLAPRIKAEVIWILGGKDTVVPPITQMAAYNKIQSKKSLYVLPEYGHEYLPKISDWLRENQGPGSGGAGSPGSAGGPGSHHHHHH | –
786 ppm | 242.2 ppm | EZ-34: Lla-link1-HC263-H6, SEQ ID NO: 458 (protein) MTKINNWQDYQGSSLKPEDFDKFWDEKINLVSNHQFEFELIEKNLSSKVVNFYHLWFTAIDGAKIHAQLIVPKNLKEKYPAILQFHGYHCDSGDWVDKIGIVAEGNVVLALDCRGQGGLSQDNIQTMGMTMKGLIVRGIDEGYENLYYVRQFMDLITATKILSEFDFVDETNISAQGASQGGALAVACAALSPLIKKVTATYPFLSDYRKAYELGAEESAFEELPYWFQFKDPLHLREDWFFNQLEYIDIQNLAPRIKAEVIWILGGKDTVVPPITQMAAYNKIQSKKSLYVLPEYGHEYLPKISDWLRENQGPGSGGAGSPGSAGGPGSPSAQSQLPDKHSGLHERAPQRYGPEPEPEPEPIPEPPKEAPVVIEKPKPKPKPKPKPPAHDHKNQKETHQRHAAGSGGGGSPHHHHHH | –
497.7 ppm | 419.3 ppm | EZ-32: Mlo-link1-DenP308-H6, SEQ ID NO: 456 (protein) MPFPDLIQPELGAYVSSVGMPDDFAQFWTSTIAEARQAGGEVSIVQAQTTLKAVQSFDVTFPGYGGHPIKGWLILPTHHKGRLPLVVQYIGYGGGRGLAHEQLHWAASGFAYFRMDTRGQGSDWSVGETADPVGSTSSIPGFMTRGVLDKNDYYYRRLFTDAVRAIDALLGLDFVDPERIAVCGDSQGGGISLAVGGIDPRVKAVMPDVPFLCDFPRAVQTAVRDPYLEIVRFLAQHREKKAAVFETLNYFDCVNFARRSKAPALFSVALMDEVCPPSTVYGAFNAYAGEKTITEYEFNNHEGGQGYQERQQMTWLSRLFGVGGPGSGGAGSPGSAGGPGSDPTKPPRTPTANTSRPHHNFGSGGGGSPHHHHHH | –
